Source: PMC6230994 (2018)

Target: His6:ΔIBB-IMPORTIN-α2 (Arabidopsis thaliana (Mouse-ear cress), UniProt F4JL11)
Experiment: analytical SEC

Chain of His6:ΔIBB-IMPORTIN-α2 (F4JL11 75-535, stated change not applied): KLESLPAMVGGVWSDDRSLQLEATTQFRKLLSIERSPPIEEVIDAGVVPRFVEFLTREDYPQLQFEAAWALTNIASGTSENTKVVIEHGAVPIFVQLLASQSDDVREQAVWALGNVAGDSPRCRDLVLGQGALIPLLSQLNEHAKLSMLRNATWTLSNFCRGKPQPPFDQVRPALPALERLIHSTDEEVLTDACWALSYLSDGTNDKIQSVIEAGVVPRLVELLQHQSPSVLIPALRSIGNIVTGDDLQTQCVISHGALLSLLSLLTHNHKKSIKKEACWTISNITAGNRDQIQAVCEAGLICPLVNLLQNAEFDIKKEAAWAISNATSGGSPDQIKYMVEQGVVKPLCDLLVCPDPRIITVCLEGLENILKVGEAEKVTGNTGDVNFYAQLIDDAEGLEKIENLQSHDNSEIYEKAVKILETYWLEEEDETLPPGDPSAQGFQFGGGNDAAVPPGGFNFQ

binding result: no binding
B1: His6:SUMO:SAP (protein)
chain: MANKLKVDELRLKLAERGLSTTGVKAVLVERLEEAIAEDTKKEESKSKRKRNSSNDTYESNKLIAIGEFRGMIVKELREEAIKRGLDTTGTKKDLLERLCNDANN
